Measured values from US20220204565A1.
Bridges are numbered along the chain shown (N, C = ends). Where no end group is shown, it is not given here. [ ]: non-standard residue; d: D form. triazolo‑proline = not defined here

B1: cPT 5 (peptide)
peptide: [dD]NI[triazolo‑proline]WK-NH2
modifications: lactam 1-6; not fully specified; reading uncertain
B2: cPT 33 (peptide)
peptide: DNIPWK-NH2
modifications: lactam 1-6; not fully specified (residue 4)
B3: cPT 4 (peptide)
peptide: DNI[triazolo‑proline]W[dK]-NH2
modifications: lactam 1-6; not fully specified; reading uncertain
B4: cPT 31 (peptide)
peptide: DNIPWK-NH2
modifications: lactam 1-6; not fully specified (residue 4)
B5: cPT 38 (peptide)
peptide: NIPWK
modifications: N-terminus of Asn 1 acylated by succinic acid whose other carboxyl is amide-bonded to Lys 5 side-chain amine (macrocycle; replaces Asp, no primary NH2); Pro 3 is 4-(4-(4-(thiophen-2-yl)phenyl)-1H-1,2,3-triazol-1-yl)proline; C-terminal amide
B6: cPT 32 (peptide)
peptide: DNIPWK-NH2
modifications: lactam 1-6; not fully specified (residue 4)
B7: cPT 14 (peptide)
peptide: DNI[triazolo‑Pro][benzothienylalanine]K-NH2
modifications: lactam 1-6; not fully specified
B8: cPT 16 (peptide)
peptide: DNIPWK-NH2
modifications: lactam 1-6; not fully specified (residue 4); also: Pro4 triazole substituent: phenyl joined through two spacer atoms
B9: cPT 30 (peptide)
peptide: DNIPWK-NH2
modifications: lactam 1-6; not fully specified (residue 4); also: Pro4 triazole substituent: isoquinoline moiety
B10: cPT 37 (peptide)
peptide: DNI[4‑(4-((2,2'-bithiophen)-5-yl)-1H-1,2,3-triazol-1-yl)proline]WK-NH2
modifications: lactam 1-6

Molecular target: HIV-1 BaL.01 Env gp160 on pseudovirus (HIV-1 BaL.01)
Test: cell-based or functional assay

| Binder | HIV-1Bal.01 infection inhibition IC50 [nM] | further results |
| --- | --- | --- |
| B1 | – | HIV-1 infection inhibition, fold decrease in activity against cPT 3: 7 fold |
| B2 | 6000 | – |
| B3 | – | HIV-1 infection inhibition, fold decrease in activity against cPT 3: > 50 fold |
| B4 | 1800 | – |
| B5 | – | HIV-1Bal.01 cell infection inhibition IC50: 882 nM; HIV-1 infection inhibition, fold decrease in potency against cPT 36: 8 fold |
| B6 | 7300 | – |
| B7 | 170 | – |
| B8 | 2020 | – |
| B9 | 5000 | – |
| B10 | 405 | – |
